Reference: patent publication US20240182562A1
Where a chain is given by its changes, count along the chain named.

B1: 7E3 (hybridoma clone, murine CLDN18.2 antigen-binding protein) (antibody, V domains shown)
VH: EVQLQQSGPELVKPGASVKMSCKASGYTFTNYIIHWVKQKPGQGLEWIGYINPYTDGPKYNEKFKGRATLTSDKSSSTAYMEFSSLTSEDSAVYYCARLNRGNAMDYWGQGTSVTVSS
VL: DIVMTQSPSSLTVTVREKVTLSCKSSQSLLNSGNQKNYLTWYQQKPGQPPKLLIYWASTRESGVPDRFTGSGSGTDFTLTISSVQAEDLAVYYCQNVYIYPFTFGAGTKLELKR
B2: 17B10 (hybridoma clone, murine CLDN18.2 antigen-binding protein) (antibody, V domains shown)
VH: B1 VH with Q6E
VL: B1 VL with V15A, R16G, L21M, S22N, V97D, I99S, Y100F, A106S, L112I
B3: 14E12 (hybridoma clone, murine CLDN18.2 antigen-binding protein) (antibody, V domains shown)
VH: B1 VH with Q6E
VL: DIVMTQSPSSLSVSAGEKVTMSCKSSQSLLNNGNQKNYLAWYQQKPGQPPKLLIYGASTRESGVPDRFTGSGSGTDFALTISSVQAEDLAVYYCQNDLYYPFTFGSGTKLDIKR
B4: 5E6 (hybridoma clone, murine CLDN18.2 antigen-binding protein) (antibody, V domains shown)
VH: B1 VH with I33V, I34M, H35N, T55N, P58T, K63R, R67K, Y80F, F83V, N100Y
VL: B1 VL

The binders below were run against Human CLDN18.1 (human) (UniProt P56856) (assay: FACS, hybridoma culture supernatant on 293T-human CLDN18.1 cells (permeable membrane treatment)).
Chain of Human CLDN18.1 (human) (P56856 whole entry): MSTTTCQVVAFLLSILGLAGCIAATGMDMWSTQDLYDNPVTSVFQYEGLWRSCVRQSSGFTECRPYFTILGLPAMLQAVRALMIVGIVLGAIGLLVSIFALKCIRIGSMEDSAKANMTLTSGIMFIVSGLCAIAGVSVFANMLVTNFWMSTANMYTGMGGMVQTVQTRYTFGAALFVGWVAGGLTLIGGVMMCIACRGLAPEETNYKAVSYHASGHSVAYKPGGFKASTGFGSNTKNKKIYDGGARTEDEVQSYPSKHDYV

Row | Average fluorescence intensity | Binder
1 | 3040 | B1
2 | 2400 | B2
3 | 2580 | B3
4 | 4330 | B4

These binders were tested against Human CLDN18.1 (human) (UniProt P56856) (assay: FACS, hybridoma culture supernatant on CHO-human CLDN18.1 cells (permeable membrane treatment)).

Row | Average fluorescence intensity | Binder
5 | 3380 | B1
6 | 1680 | B2
7 | 1860 | B3
8 | 5370 | B4
